# Experimental data from patent US20210347867A1 (GEORG AUGUST UNIVERSIT T G TTINGEN STIFTUNG FFENTLICHEN …, published 2021).
# Where two headings read alike, the source gives them in different places.
# B1: (rcNT4X_S6A) R1 (antibody, V domains shown)
# VH: QVQLQESGPGLVKPSETLSLTCTVSGFSLSSYGISWIRQPPGKGLEWIGVMWSGGITDFYAAFISRVTISRDTSKNQVSLKLSSVTAADTAVYYCARGSRYALDYWGQGTLVTVSS
# VL: DIQMTQSPSSLSASVGDRVTITCRASQDISNYLNWYQQKPGKAPKLLIYYTSRLHSGVPSRFSGSGSGTDFTLTISSLQPEDFATYYCQQGNTLPPTFGGGTKLEIK
# notes: also called RHS6/RKA
# B2: humanized NT4X-167 RHB/RKB (antibody, mouse IgG1, V domains shown)
# VH: QVQLQESGPGLVKPSETLSLTCTVSGFSLTSYGIHWIRQPPGKGLEWLGVMWSGGITDFYAAFISRLTISRDTSKNQVSLKMSSVTAADTAVYYCARGSRYALDYWGQGTLVTVSS
# VL: DIQMTQSPSSLSASVGDRVTITCRASQDISNYLNWYQQKPGGAPKLLIYYTSRLHSGVPSRFSGSGSGTDYTLTISSLQPEDFATYFCQQGNTLPPTFGGGTKLEIK
# notes: also called HB/KB
# B3: humanized NT4X-167 RHB/RKA (antibody, mouse IgG1, V domains shown)
# VH: QVQLQESGPGLVKPSETLSLTCTVSGFSLTSYGIHWIRQPPGKGLEWLGVMWSGGITDFYAAFISRLTISRDTSKNQVSLKMSSVTAADTAVYYCARGSRYALDYWGQGTLVTVSS
# VL: DIQMTQSPSSLSASVGDRVTITCRASQDISNYLNWYQQKPGKAPKLLIYYTSRLHSGVPSRFSGSGSGTDFTLTISSLQPEDFATYYCQQGNTLPPTFGGGTKLEIK
# notes: also called BA
# B4: humanized NT4X-167 RHN/RKA (antibody, mouse IgG1, V domains shown)
# VH: QVQLQESGPGLVKPSETLSLTCTVSGFSLTSYGIHWIRQPPGKGLEWIGVMWSGGITDFYAAFISRLTISRDTSKNQVSLKMSSVTAADTAVYYCARGSRYALDYWGQGTLVTVSS
# VL: DIQMTQSPSSLSASVGDRVTITCRASQDISNYLNWYQQKPGKAPKLLIYYTSRLHSGVPSRFSGSGSGTDFTLTISSLQPEDFATYYCQQGNTLPPTFGGGTKLEIK
# B5: humanized NT4X-167 RHL/RKA (antibody, mouse IgG1, V domains shown)
# VH: QVQLQESGPGLVKPSETLSLTCTVSGFSITSYGIHWIRQPPGKGLEWLGVMWSGGITDFYAAFISRLTISRDTSKNQVSLKMSSVTAADTAVYYCARGSRYALDYWGQGTLVTVSS
# VL: DIQMTQSPSSLSASVGDRVTITCRASQDISNYLNWYQQKPGKAPKLLIYYTSRLHSGVPSRFSGSGSGTDFTLTISSLQPEDFATYYCQQGNTLPPTFGGGTKLEIK
# B6: humanized NT4X-167 RHM/RKA (antibody, mouse IgG1, V domains shown)
# VH: QVQLQESGPGLVKPSETLSLTCTVSGFSLSSYGIHWIRQPPGKGLEWLGVMWSGGITDFYAAFISRLTISRDTSKNQVSLKMSSVTAADTAVYYCARGSRYALDYWGQGTLVTVSS
# VL: DIQMTQSPSSLSASVGDRVTITCRASQDISNYLNWYQQKPGKAPKLLIYYTSRLHSGVPSRFSGSGSGTDFTLTISSLQPEDFATYYCQQGNTLPPTFGGGTKLEIK
# B7: humanized NT4X-167 RHP/RKA (antibody, mouse IgG1, V domains shown)
# VH: QVQLQESGPGLVKPSETLSLTCTVSGFSLTSYGIHWIRQPPGKGLEWLGVMWSGGITDFYAAFISRLTISVDTSKNQVSLKMSSVTAADTAVYYCARGSRYALDYWGQGTLVTVSS
# VL: DIQMTQSPSSLSASVGDRVTITCRASQDISNYLNWYQQKPGKAPKLLIYYTSRLHSGVPSRFSGSGSGTDFTLTISSLQPEDFATYYCQQGNTLPPTFGGGTKLEIK
# B8: (rcNT4X_S8A) R1 (antibody, V domains shown)
# VH: QVQLQESGPGLVKPSETLSLTCTVSGFSLSSYGISWIRQPPGKGLEWIGVMWSGGITNFYPSLKSRVTISRDTSKNQVSLKLSSVTAADTAVYYCARGSRYALDYWGQGTLVTVSS
# VL: DIQMTQSPSSLSASVGDRVTITCRASQDISNYLNWYQQKPGKAPKLLIYYTSRLHSGVPSRFSGSGSGTDFTLTISSLQPEDFATYYCQQGNTLPPTFGGGTKLEIK
# notes: also called RHS8/RKA
# B9: humanized NT4X-167 RHK/RKA (antibody, mouse IgG1, V domains shown)
# VH: QVQLQESGPGLVKPSETLSLTCTVSGGSLTSYGIHWIRQPPGKGLEWLGVMWSGGITDFYAAFISRLTISRDTSKNQVSLKMSSVTAADTAVYYCARGSRYALDYWGQGTLVTVSS
# VL: DIQMTQSPSSLSASVGDRVTITCRASQDISNYLNWYQQKPGKAPKLLIYYTSRLHSGVPSRFSGSGSGTDFTLTISSLQPEDFATYYCQQGNTLPPTFGGGTKLEIK
# B10: humanized NT4X-167 RHQ/RKA (antibody, mouse IgG1, V domains shown)
# VH: QVQLQESGPGLVKPSETLSLTCTVSGFSLTSYGIHWIRQPPGKGLEWLGVMWSGGITDFYAAFISRLTISRDTSKNQFSLKMSSVTAADTAVYYCARGSRYALDYWGQGTLVTVSS
# VL: DIQMTQSPSSLSASVGDRVTITCRASQDISNYLNWYQQKPGKAPKLLIYYTSRLHSGVPSRFSGSGSGTDFTLTISSLQPEDFATYYCQQGNTLPPTFGGGTKLEIK
# B11: humanized NT4X-167 RHR/RKA (antibody, mouse IgG1, V domains shown)
# VH: QVQLQESGPGLVKPSETLSLTCTVSGFSLTSYGIHWIRQPPGKGLEWLGVMWSGGITDFYAAFISRLTISRDTSKNQVSLKLSSVTAADTAVYYCARGSRYALDYWGQGTLVTVSS
# VL: DIQMTQSPSSLSASVGDRVTITCRASQDISNYLNWYQQKPGKAPKLLIYYTSRLHSGVPSRFSGSGSGTDFTLTISSLQPEDFATYYCQQGNTLPPTFGGGTKLEIK
# B12: humanized NT4X-167 RHO/RKA (antibody, mouse IgG1, V domains shown)
# VH: QVQLQESGPGLVKPSETLSLTCTVSGFSLTSYGIHWIRQPPGKGLEWLGVMWSGGITDFYAAFISRVTISRDTSKNQVSLKMSSVTAADTAVYYCARGSRYALDYWGQGTLVTVSS
# VL: DIQMTQSPSSLSASVGDRVTITCRASQDISNYLNWYQQKPGKAPKLLIYYTSRLHSGVPSRFSGSGSGTDFTLTISSLQPEDFATYYCQQGNTLPPTFGGGTKLEIK
# B13: humanized NT4X-167 RHT/RKA (antibody, mouse IgG1, V domains shown)
# VH: QVQLQESGPGLVKPSETLSLTCTVSGFSLTSYGIHWIRQPPGKGLEWIGVMWSGGITDFYAAFISRVTISRDTSKNQVSLKLSSVTAADTAVYYCARGSRYALDYWGQGTLVTVSS
# VL: DIQMTQSPSSLSASVGDRVTITCRASQDISNYLNWYQQKPGKAPKLLIYYTSRLHSGVPSRFSGSGSGTDFTLTISSLQPEDFATYYCQQGNTLPPTFGGGTKLEIK
# notes: also called TA
# B14: murine NT4X-167 antibody (antibody, V domains shown)
# VH: QVQLKQSGPGLVQPSQSLSITCTVSGFSLTSYGIHWVRQSPGKGLEWLGVMWSGGITDFYAAFISRLSISRDISKSQVFFKMNSLQADDTAIYYCARGSRYALDYWGQGTSVSVSS
# VL: DIQMTQTTSSLSASLGDRVTISCRASQDISNYLNWYQQKPDGTVKLLIYYTSRLHSGVPSRFSGSGSGTDYSLTISNLEQEDIATYFCQQGNTLPPTFGGGTKLEIK
# notes: Mouse hybridoma antibody; also called original mouse NT4X antibody
# Tests used:
# amyloid peptide AβpE3-42 [1] = molecular target: T1, amyloid peptide AβpE3-42 (UniProt P05067 674-713, N-terminal pyroglutamate (pE) at Aβ position 3); experiment: ELISA, plate coated with AβpE3-42, antibody titrated, blank-subtracted OD650
# T1 construct: domain: AβpE3-42; Bought synthetic peptide; also called AβpGlu3-42; Aβ(Glp3)3-42
# T1 sequence (P05067 674-713 limits assumed): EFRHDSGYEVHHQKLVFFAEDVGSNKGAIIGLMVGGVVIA
# Description: (§1) Each well of a […] MaxiSorp plate (Nunc) was coated with 50 μL aliquots of 200 ng/mL of 1-42, pE3-42 or 4-42 amyloid peptides in PBS and incubated overnight at 4° C. The wells were washed 3× with PBS-T (0.1% Tween20) and blocked with 150 μL of 5% milk in PBS/0.05% Tween20 per well. The wells were then incubated at RT with shaking for 1 hour and washed 3× with PBS-T (0.1% Tween20). 50 μl of primary antibody serially diluted in 1% milk PBS/0.05% Tween20 was added to the wells of the assay plate using a 3-fold dilution series starting from ˜100 μg/mL. The incubation and washing step was then repeated. Anti-human kappa chain HRP (Sigma A7164-1 mL) was diluted 4,000-fold in PBS/1% milk/0.05% Tween20 and 50 μl added to each well. The incubation and washing step was repeated and then 75 μL of K-Blue substrate (Neogen) was added per well and incubated for 5-10 minutes at RT. The reaction was stopped by adding 50 μl of RED STOP solution (Neogen) to each well and the optical density was read at 650 nm.
# Therefore, F67Y, Y68N, I39W and an additional variant that combined F67Y and Y68N were generated (Table 2) and binding to Aβ1-42, AβpE3-42 and 4-42 was investigated. […] Five additional variants of the heavy chain were generated with the following mutations, S53M, S53H, R100H, L103R and L103H (Table 4b). In addition, five variants of the light chain were also generated RKF (N92W), RKG (N92Y), RKH (N92H), RKI (L94R) and RIC (L94H).
# amyloid peptide AβpE3-42 [2] = molecular target: T1, amyloid peptide AβpE3-42; experiment: ELISA, plate coated with AβpE3-42, antibody titrated, signal as % Max
# Description: as §1
# amyloid peptide AβpE3-42 [3] = molecular target: T1, amyloid peptide AβpE3-42; experiment: ELISA, plate coated with AβpE3-42 (target by legend paragraph 24), antibody titrated, A650nm
# Description: as §1
# amyloid peptide AβpE3-42 [4] = molecular target: T1, amyloid peptide AβpE3-42; experiment: ELISA, plate coated with AβpE3-42, antibody titrated, A650nm
# Description: as §1
# amyloid peptide AβpE3-42 [5] = molecular target: T1, amyloid peptide AβpE3-42; experiment: ELISA, plate coated with AβpE3-42 (PSL), antibody titrated, blank-subtracted OD650
# Description: as §1
# amyloid peptide AβpE3-42 [6] = molecular target: T1, amyloid peptide AβpE3-42; experiment: ELISA, plate coated with AβpE3-42, antibody titrated, A650nm; remark: listed apart in the source
# Description: as §1
# amyloid peptide Aβ4-42 = molecular target: T2, amyloid peptide Aβ4-42 (UniProt P05067 675-713); experiment: ELISA, plate coated with Aβ4-42 from PSL, antibody titrated, A650nm
# T2 construct: domain: Aβ4-42; Bought synthetic peptide; also called Anaspec Aβ4-42
# T2 sequence (P05067 675-713 limits assumed): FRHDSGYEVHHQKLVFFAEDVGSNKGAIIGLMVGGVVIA
# amyloid peptide AβpE3-42 [7] = molecular target: T1, amyloid peptide AβpE3-42; experiment: ELISA, plate coated with AβpE3-42 from PSL, antibody titrated, A650nm
# amyloid peptide AβpE3-42 [8] = molecular target: T1, amyloid peptide AβpE3-42; experiment: as above; remark: listed apart in the source
# Description: as §1
# amyloid peptide AβpE3-42 [9] = molecular target: T1, amyloid peptide AβpE3-42; experiment: ELISA, plate coated with AβpE3-42 from California peptides (Cal Hu), antibody titrated, A650nm
binder,measurement,setting,value
B1,binding result,amyloid peptide AβpE3-42 [1],no binding (tested: about 120 ug/ml)
B2,EC50,amyloid peptide AβpE3-42 [2],0.377 µg/mL
same,EC50,amyloid peptide AβpE3-42 [3],2.74 µg/mL
B3,EC50,amyloid peptide AβpE3-42 [2],0.341 µg/mL
same,EC50,amyloid peptide AβpE3-42 [3],3.86 µg/mL
B4,binding result,amyloid peptide AβpE3-42 [4],binds
B5,binding result,amyloid peptide AβpE3-42 [4],binds
B6,binding result,amyloid peptide AβpE3-42 [4],binds
B7,binding result,amyloid peptide AβpE3-42 [4],binds
B8,binding result,amyloid peptide AβpE3-42 [1],no binding (tested: about 120 ug/ml)
B9,binding result,amyloid peptide AβpE3-42 [4],binds
B10,binding result,amyloid peptide AβpE3-42 [4],binds
B11,binding result,amyloid peptide AβpE3-42 [4],binds
B12,binding result,amyloid peptide AβpE3-42 [4],binds
B13,binding result,amyloid peptide AβpE3-42 [5],binds
B14,EC50 (read off the curve),amyloid peptide AβpE3-42 [4],~0.5 µg/mL
same,EC50 (read off the curve),amyloid peptide AβpE3-42 [6],~0.5 µg/mL
same,binding result,amyloid peptide Aβ4-42,binds
same,EC50,amyloid peptide AβpE3-42 [7],24.9 nM
same,EC50,amyloid peptide AβpE3-42 [8],24.9 nM
same,EC50,amyloid peptide AβpE3-42 [3],2.4 µg/mL
same,EC50,amyloid peptide AβpE3-42 [9],15.7 nM
